Measurements published in the supplement of paper PMC12764529.
± gives the half width of the 95% confidence interval.

test: folding stability dG unfold from trypsin proteolysis; higher = more stable
Description: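 Folding stability of de novo designed mini-proteins (<80 aa, no Cys; designed by TrROS, TrMRF, ProteinMPNN and the joint model) was measured by cDNA display proteolysis with trypsin and chymotrypsin. Each protease was used at 11 concentrations in a threefold dilution series plus a no-protease condition. K50 was inferred by Bayesian fitting of sequencing counts, and dG unfold was derived against a sequence-predicted unfolded-state K50 (Tsuboyama et al. method). Sequences shown include variable-length N-terminal GS-type padding (SAGGSAGG...) inside a display construct carrying a PA tag. Rows were kept only if the AF2 dimer inter-PAE was >15, to exclude likely homo-oligomers.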

| Sequence | folding stability dG unfold [kcal/mol] |
| --- | --- |
| SAGAGTVASPEEAEELVEELRAALPPEATITRDPTPEGGVRFTVRLPGEGRVLEMEFDPARDTTARRPESAG [r5_358_JUSTAS] | -0.391 ± 0.083 |
| SAGGMVEIDPNPRVITVTDPSSSKVTKLNLPFPPDEVEKVTVLPDGTIAVYVPATGETIEVPLSELGSAGGS [r16_410_JUSTAS] | -0.136 ± 0.22 |
| SAGGSAGGSAMILVPKEKLEEAAKKLNLNIVEVKPVPPGIEVAEVKVEGSEEQKKAFLEALLSAGGSAGGSA [r18_175_JUSTAS] | 0.216 ± 0.082 |
| SAGGMTIVKPSDGTPQFIEDEEAEKLVKELEEKGLLKKEKPGDITIPLPTVDPVTGKPRTTTITILPESSAG [r5_243_JUSTAS] | -0.962 ± 0.14 |
| SAGGSAGGSAESIDAKVTPVALPSGPRYLIEVNNPAAPEIPKSVVEEELAKKYPKERVELLSAGGSAGGSAG [r3_226_JUSTAS] | -0.516 ± 0.1 |
| SAGKITIEYDKETNTVTVTIEIEIEVINEDGSIEKKKITITVKVKVDKKTNKVELLSLDEILKKLEELLSAG [r5_239_TrROS_Hall] | 2.92 ± 0.2 |
| SAGGSAGGMSISTEQEGGKITVTDSSPGTPIAELPPDVEKEVETPVIPPPPPLYRLFLPGTVLVSAGGSAGG [r6_40_JUSTAS] | -0.94 ± 0.48 |
| SAGGSMTLTFRKPDTDVTSEKVTKPPGGPELVDLRITPPDGSGEKRTLTPEELAKEFGLSLEEILESAGGSA [r2_262_JUSTAS] | -0.183 ± 0.31 |
| SAGGSAGGSAGEPIRVRIENPPGGQRKITIPTDDLQEKGITPKDIAKKLAREFGWPIEVWSAGGSAGGSAGG [r11_829_TrROS] | 0.257 ± 0.3 |
| SAGGSAGGSAGGFVEKYPDGVIVEKDPNNDSGTVKKVTTTKDPNTNKPTSKVTVTPISKLSAGGSAGGSAGG [r7_181_JUSTAS] | -0.844 ± 0.2 |
| SAGGSAGGSAPPPLPPDAVVTIPNPGSLEEVKKLAEKLREEHGIKKIKITVEPNSVTLTVASAGGSAGGSAG [r3_73_JUSTAS] | 0.476 ± 0.15 |
| SAGGSAGGSAMLTKTIKLPNGKPASVTITTLSEGSSPGSSVDPKLVINADPNIPKEIVDKLLSAGGSAGGSA [r18_272_JUSTAS] | -0.624 ± 0.077 |
| SAGGSAGGSGMVSSVVKHTVELNVPENRPNAEELAAELRAAHPGVTVVEITETPNKAVITVEESAGGSAGGS [r12_454_JUSTAS] | 0.296 ± 0.062 |
| SGSPSTPVTITVEFPPRLTTVLYREPTRPPLGYLLVPEPSRTETITVPVSEVAAVKAELEPRGMTVTVTASA [r9_167_JUSTAS] | -0.69 ± 0.33 |
| VEFEEIETTFTLAAPGGSLVDVDLKTTKKDPKNGKVYIEGTLTTVDPGGVPRTLPTKRVVSPEELKQLVSES [r1_371_JUSTAS] | 0.143 ± 0.19 |
| SAGGSAGGSAGSVEEIESPDGTKTLVTKEPDSIKTTVTKPGGIPTLVTIDSKTGKWSVSLSAGGSAGGSAGG [r11_590_JUSTAS] | -0.595 ± 0.24 |
| SAGGSAGGSPDNITFKVPDGPVRIENGNNEQEFPPGKTQTIPPKNPNNMRIEAFPPNIIKITPSAGGSAGGS [r20_150_TrROS] | -0.793 ± 0.45 |
| SNPWQIKFRNPNRPVEIPIQMNPDDGYVGISVRMRKPGKPKTHTITYKVKNIEDLLDHLEDLPPGFEIEPSA [r9_713_TrROS] | 0.435 ± 0.27 |
| SAGGSAGGSAGGDPVTVLSIKPEPGKLTVTTNTRADGSTTTTTVSPENPPNIKPGEPLSSAGGSAGGSAGGS [r10_834_JUSTAS] | 0.552 ± 0.04 |
| SAGGMVTVERGPENRVITITLPPSVPEKVDELAAKLGTDYVTTEPLPEGDLVRYTIYVPGDNPALLESAGGS [r16_479_JUSTAS] | 0.0152 ± 0.12 |
| SAGGPKLYIMIPPELRDNFPDIEIRPVEIPDDNIEIEIKFPGKKVTFPIYIFDPDGKIVEPQTITIEPSAGG [r13_129_TrROS] | 0.501 ± 0.076 |
| SAGGSAGGSAGGSKKIIIPVGNKPIEITLHPDEIPEIHPETNYISIYLPKTNDVLILPVGSAGGSAGGSAGG [r7_7_TrMRF] | -0.0749 ± 0.051 |
| SAGGSAGGSADIELLGESVDPATGRSSKTFQAPGKIIVETTAPDGTKTTSVVDPNSNVTIPLSAGGSAGGSA [r18_230_JUSTAS] | -0.522 ± 0.11 |
| SAGGSAGGSAGKEIHIPFPDGDTPEQAKKFAKEIADMLAQKNGKPIKVDKIEIIPPEQWPSAGGSAGGSAGG [r17_68_TrROS] | -0.546 ± 0.11 |

| Sequence | folding stability dG unfold [kcal/mol] |
| --- | --- |
| SAGGSPTIDITPEVFEELKKKGVTPDKESFNITASLPDGTVYEGTITLPPSNPNIPFEYKPVDKPLESAGGS [r16_497_JUSTAS] | -0.22 ± 0.061 |
| SAGGSGMRKFSPEEAKKKEVVITIPVVTYSPSLKFSPVTVPVTVSGPVTSDEEAKEKVEKAVKELASAGGSA [r2_244_JUSTAS] | -1.03 ± 0.48 |
| SAGGSAGGSAGVELPPSLSAEVTPVPGKPGLSRVTITLPDGVVRTIDLERKGDKWIVNPRSAGGSAGGSAGG [r11_177_JUSTAS] | -0.0818 ± 0.14 |
| SAGGSAGGSAGGPVVNILVKHPNGKKETISVDVKEENIGEVATDILPKGYEVLEPSVFPGSAGGSAGGSAGG [r7_159_TrMRF] | -0.258 ± 0.1 |
| SAGGSLPVVDGPSDLVETTVYEDGTIEIKVERAEPPGVPTVRTLTITLEPPVGPPKVPPGNPKYLGSAGGSA [r2_368_JUSTAS] | -1.08 ± 0.53 |
| SAGGSAGGSAGSMPIVLRAEFPSNDETVEIPVTSPEEAERVAQELAAQPDWPLEKVDFGGSAGGSAGGSAGG [r11_951_JUSTAS] | 0.414 ± 0.064 |
| SMKALVLELPEEKVVVVFETDELKVVPIPVKDKEEAKEKIEELVKELEEETGKKPEVVVVEVDEDEELPVSA [r9_786_TrMRF] | -0.0691 ± 0.16 |
| SAGGSAGGSAGGDAILIEVESPEDAVEAARELAEKEFGIDPENFPINVVVDEPDGKALIASAGGSAGGSAGG [r7_387_TrMRF] | 0.743 ± 0.019 |
| SAGGSAGGSASSPSSPVKVTVTVTAPDSLVKTITVTKTPEGVIDLVLPSDIPSDYKITIIESAGGSAGGSAG [r3_44_JUSTAS] | 0.0537 ± 0.08 |
| SAGGSAGGMTAEEVAEWIADEFMENHPNIEIKPVATEDGEVKIDIRHPNSGMTHTFKIPPGQPLSAGGSAGG [r6_446_TrROS] | -0.796 ± 0.19 |
| SAGGPSAENLVEGDKVLLLIPLGDGPERRLELPLPDGRPVVVEVEPDRPGLITVTIPETGKPIVLPLSAGGS [r16_198_TrMRF] | -0.489 ± 0.086 |
| SAGGSASYSSLKITIIDTGTTTTVPPGATTTPTVVKLPDNKTAIITTTTPPDGTTATTVELFDNDKSAGGSA [r15_559_JUSTAS] | -0.717 ± 0.12 |
| SAGGSAGGSAMTPDELKDNFPNMPVEPRPLNNSTQWKIEMPGGMRIEIQYDPGKPKIDIEEGSAGGSAGGSA [r18_13_TrROS] | -0.039 ± 0.064 |
| SAGGSAGGSMVLIEIYFKGPEKPIVFPAEGPEEVVEKLLELVEENPELGLDNIAEIRAYPGEESAGGSAGGS [r12_852_TrMRF] | 0.425 ± 0.074 |
| SAGGSAGGMVEHVVTVPPSQVEEVIEEAKPKPVVEVKVEKVPGRDEVVVTMKYEIPEEELLKKLSAGGSAGG [r6_273_JUSTAS] | -0.704 ± 0.084 |
| SAGGSAGGSAGGKITIVVSASSPEEAKRFVGELKALGPADIKVIVVPAPKPLPADDPRAKSAGGSAGGSAGG [r7_261_TrMRF] | -0.177 ± 0.21 |
| SAGGSAGGSMVTTSIDPSGTAKITVTDGGGVPVSTATIPVDPNAILTYDPNNSSISTFSPVSSSAGGSAGGS [r12_1002_JUSTAS] | 0.519 ± 0.032 |
| SAGGGMVERTETVTVPLSDVLAGRPPTPEAIAAARFPDTAEVTLETTEVPEDDTVTVTLTVRVPPELLSAGG [r13_862_JUSTAS] | 0.472 ± 0.069 |
| SAGGSAGGSAGGITPEEIEKIREAPLPNGAPIKDVFVEGDYAVVLFETEPDLYLIVIPNKSAGGSAGGSAGG [r7_995_TrMRF] | -0.121 ± 0.12 |
| SAGGSAGGSAGGMYIATFKPPDGSEITVKLNPGEKVTIKLKDGTPAGVVSKKAVSPELLSAGGSAGGSAGGS [r10_422_JUSTAS] | -0.245 ± 0.17 |
| SAGGSVRIESIKWKRPPNGMFKIEIHVEAPPGDPDDPEKQERQAESVAKPIAKELQDEFGFKPIGPSAGGSA [r2_306_TrROS] | -0.774 ± 0.99 |
| SAGGGAEEEAKKIAEELEKIGGVKKVEVEVKPKPDDSVEVKVKVEFEPPKPPKPPVVELPENGELVFKSAGG [r13_957_TrMRF] | -0.0749 ± 0.21 |
| SAGGSRQVIEWEFKDPKNGKPFEISIEYDEENGVPMVEIRDRNGEPNAVVPVPPDNADEALEKFGISAGGSA [r2_115_TrROS] | -0.903 ± 0.46 |
